For experiment [1], the target named is T1, NSP12 peptide on HLA-A*02:01 (human).
T1 peptide: TMADLVYAL
Description: activation reporter or marker.

Experiment [2] concerns the target T2, NSP12 peptide on HLA-A*02:01 (human).
T2 peptide: FVDGVPFVV
Description: activation reporter or marker.

B1: CoVTCR 12 (TCR)
alpha TRAV17 TRAJ57 CDR3: CATVLPTQGGSEKLVF
beta TRBV18 TRBJ1-1 CDR3: CASSLTVNMNTEAFF
For B1, in experiment [1], the binding result was “recognises”.

B2: CoVTCR 19 (TCR)
alpha TRAV35 TRAJ43 CDR3: CAGQLARDMRF
beta TRBV13 TRBJ2-7 CDR3: CASRWAGGTAYEQYF
Turning to B2, the binding result in experiment [2] is “recognises”.

B3: CoVTCR 18 (TCR)
alpha TRAV12-1 TRAJ45 CDR3: CVLPSGGGADGLTF
beta TRBV5-1 TRBJ2-1 CDR3: CASTGLAGGPYNEQFF
Turning to B3, in experiment [2], the binding result was “recognises”.

The values above are taken from publication PMC8660260 (2021).
